According to publication PMC5983740, “Tryptophan-Containing Dual Neuroprotective Peptides: Prolyl Endopeptidase Inhibition and Caenorhabditis elegans Protection from β-Amyloid Peptide Toxicity” (International Journal of Molecular Sciences, 2018):

Biological target: T1, prolyl endopeptidase (PEP) (Elizabethkingia meningoseptica, UniProt P27028)
T1 construct: purchased Seikagaku Corporation (Tokyo, Japan)
Test: biochemical
Assay type: biochemical
Conditions: 0.7 and 1.4 mg/mL
Procedure: The PEP activity was determined as previously described with minor modifications. Enzyme assays were performed in 96-well microplates using Z-Gly-Pro-p-nitroanilide as a substrate and measuring the increase in absorbance at 410 nm due to the release of p-nitroaniline. Ten µL of tenfold peptide or hydrolysate solution in 100 mM sodium phosphate buffer, pH 7 ([…] for LFHs), 30 µL of a 0.1 U/mL PEP solution in 100 mM sodium phosphate buffer (pH 7) and 35 µL of the same sodium phosphate buffer were pre-incubated at 30 °C for 5 min, and the mixture incubated with 25 µL of 2 mM Z-Gly-Pro-p-nitroanilide in 40% 1,4-dioxane for 30 min at the same temperature. The reaction was finished by the addition of 100 µL 10% Triton X-100 in 1 M sodium acetate buffer (pH 4), and the absorbance measured at 410 nm in a microplate reader. Data are expressed as the percentage of PEP residual activity with respect to a control without peptide (100%).
The IC50 value of a peptide was defined as the concentration required to inhibit 50% of the PEP activity and the value for each experiment was estimated by non-linear regression of the experimental data to a four-parameter logistic curve using the software package SigmaPlot v 13.0 (SPSS Inc., Chicago, IL, USA).

T1 sequence (P27028 21-705): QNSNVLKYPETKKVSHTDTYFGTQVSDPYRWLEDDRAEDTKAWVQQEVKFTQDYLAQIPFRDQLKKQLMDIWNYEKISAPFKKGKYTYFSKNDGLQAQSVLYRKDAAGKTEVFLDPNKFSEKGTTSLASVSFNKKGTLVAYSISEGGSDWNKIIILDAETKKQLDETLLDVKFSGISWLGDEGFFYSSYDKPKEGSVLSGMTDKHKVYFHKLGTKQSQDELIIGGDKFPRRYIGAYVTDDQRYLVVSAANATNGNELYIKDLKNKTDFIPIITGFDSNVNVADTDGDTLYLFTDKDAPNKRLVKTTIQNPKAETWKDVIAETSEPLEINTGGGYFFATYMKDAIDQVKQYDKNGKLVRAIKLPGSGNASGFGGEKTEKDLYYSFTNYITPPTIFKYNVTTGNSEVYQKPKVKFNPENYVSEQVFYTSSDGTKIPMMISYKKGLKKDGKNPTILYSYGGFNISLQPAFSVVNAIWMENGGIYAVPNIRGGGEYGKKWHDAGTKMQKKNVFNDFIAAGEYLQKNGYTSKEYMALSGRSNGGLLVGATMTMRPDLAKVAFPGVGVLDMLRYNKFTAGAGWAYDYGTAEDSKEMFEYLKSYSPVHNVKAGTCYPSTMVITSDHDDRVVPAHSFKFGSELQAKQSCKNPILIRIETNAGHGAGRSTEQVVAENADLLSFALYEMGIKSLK

B1: Non-hydrolysed LF: bovine lactoferrin, multifunctional iron glycoprotein of milk whey, not hydrolysed (protein, UniProt P24627 20-708, looked up)
Lactotransferrin: APRKNVRWCTISQPEWFKCRRWQWRMKKLGAPSITCVRRAFALECIRAIAEKKADAVTLDGGMVFEAGRDPYKLRPVAAEIYGTKESPQTHYYAVAVVKKGSNFQLDQLQGRKSCHTGLGRSAGWIIPMGILRPYLSWTESLEPLQGAVAKFFSASCVPCIDRQAYPNLCQLCKGEGENQCACSSREPYFGYSGAFKCLQDGAGDVAFVKETTVFENLPEKADRDQYELLCLNNSRAPVDAFKECHLAQVPSHAVVARSVDGKEDLIWKLLSKAQEKFGKNKSRSFQLFGSPPGQRDLLFKDSALGFLRIPSKVDSALYLGSRYLTTLKNLRETAEEVKARYTRVVWCAVGPEEQKKCQQWSQQSGQNVTCATASTTDDCIVLVLKGEADALNLDGGYIYTAGKCGLVPVLAENRKSSKHSSLDCVLRPTEGYLAVAVVKKANEGLTWNSLKDKKSCHTAVDRTAGWNIPMGLIVNQTGSCAFDEFFSQSCAPGADPKSRLCALCAGDDQGLDKCVPNSKEKYYGYTGAFRCLAEDVGDVAFVKNDTVWENTNGESTADWAKNLNREDFRLLCLDGTRKPVTEAQSCHLAVAPNHAVVSRSDRAAHVKQVLLHQQALFGKNGKNCPDKFCLFKSETKNLLFNDNTECLAKLGGRPTYEEYLGTEYVTAIANLKKCSTSPLLEACAFLTR
inhibitory effect on PEP activity: did not show any inhibitory effect
